The record followed here is publication PMC12087451, “The SmWRKY32-SmbHLH65/SmbHLH85 regulatory module mediates tanshinone biosynthesis in Salvia miltiorrhiza”.

Series [1] addresses T1, GST-SmWRKY32 (Salvia miltiorrhiza, UniProt A0A0D5YAE6 1-129). The experiment in a line: EMSA; Chemiluminescent EMSA kit (Beyotime GS009) EMSA/Gel-Shift binding buffer, 25 C, 10 min then 20 min with biotin probe, 6% PAGE; salt and pH not stated. To be noted: protein: recombinant; tags: N-terminal GST (pGEX-4T-1); label: biotin (labelled probe); blunt.
Series [2] deals with T1, GST-SmWRKY32. The series is described as follows: competition; 50-fold unlabelled mutant competitor; Chemiluminescent EMSA kit (Beyotime GS009) EMSA/Gel-Shift binding buffer, 25 C, 10 min then 20 min with biotin probe, 6% PAGE; salt and pH not stated. As to conditions: protein: recombinant; tags: N-terminal GST (pGEX-4T-1); label: none; blunt.

T1 sequence (A0A0D5YAE6 entry or part of it): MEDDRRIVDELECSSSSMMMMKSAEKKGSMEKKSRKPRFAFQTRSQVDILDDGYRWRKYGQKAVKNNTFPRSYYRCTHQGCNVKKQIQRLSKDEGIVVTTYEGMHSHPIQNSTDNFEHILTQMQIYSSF

B1: pSmbHLH65 W-box probe (3 copies) (dsDNA)
DNA 1: TTCATTGACCAAATTTCATTGACCAAATTTCATTGACCAAAT
DNA 2: ATTTGGTCAATGAAATTTGGTCAATGAAATTTGGTCAATGAA
As to B1, in series [1], the binding result was “binds”.

B2: pSmbHLH65-M cold probe (dsDNA)
DNA 1: TTCAAAAAAAAAATTTCAAAAAAAAAATTTCAAAAAAAAAAT
DNA 2: ATTTTTTTTTTGAAATTTTTTTTTTGAAATTTTTTTTTTGAA
As to B2, in series [2], the binding result is “no binding”.
